# Experimental data as given in US12099068B2, “Biomarkers for graft-versus-host disease” (Incyte Corporation, priority 2018, dated 2024).
# B1: IRF9 (protein, UniProt Q00978 1-393, looked up)
# Interferon regulatory factor 9: MASGRARCTRKLRNWVVEQVESGQFPGVCWDDTAKTMFRIPWKHAGKQDFREDQDAAFFKAWAIFKGKYKEGDTGGPAVWKTRLRCALNKSSEFKEVPERGRMDVAEPYKVYQLLPPGIVSGQPGTQKVPSKRQHSSVSSERKEEEDAMQNCTLSPSVLQDSLNNEEEGASGGAVHSDIGSSSSSSSPEPQEVTDTTEAPFQGDQRSLEFLLPPEPDYSLLLTFIYNGRVVGEAQVQSLDCRLVAEPSGSESSMEQVLFPKPGPLEPTQRLLSQLERGILVASNPRGLFVQRLCPIPISWNAPQAPPGPGPHLLPSNECVELFRTAYFCRDLVRYFQGLGPPPKFQVTLNFWEESHGSSHTPQNLITVKMEQAFARYLLEQTPEQQAAILSLV
# B2: GRAP2 (protein, UniProt O75791 1-330, looked up)
# GRB2-related adapter protein 2: MEAVAKFDFTASGEDELSFHTGDVLKILSNQEEWFKAELGSQEGYVPKNFIDIQFPKWFHEGLSRHQAENLLMGKEVGFFIIRASQSSPGDFSISVRHEDDVQHFKVMRDNKGNYFLWTEKFPSLNKLVDYYRTNSISRQKQIFLRDRTREDQGHRGNSLDRRSQGGPHLSGAVGEEIRPSMNRKLSDHPPTLPLQQHQHQPQPPQYAPAPQQLQQPPQQRYLQHHHFHQERRGGSLDINDGHCGTGLGSEMNAALMHRRHTDPVQLQAAGRVRWARALYDFEALEDDELGFHSGEVVEVLDSSNPSWWTGRLHNKLGLFPANYVAPMTR
# B3: NEP (protein, UniProt P08473 2-750, looked up)
# Neprilysin: GKSESQMDITDINTPKPKKKQRWTPLEISLSVLVLLLTIIAVTMIALYATYDDGICKSSDCIKSAARLIQNMDATTEPCTDFFKYACGGWLKRNVIPETSSRYGNFDILRDELEVVLKDVLQEPKTEDIVAVQKAKALYRSCINESAIDSRGGEPLLKLLPDIYGWPVATENWEQKYGASWTAEKAIAQLNSKYGKKVLINLFVGTDDKNSVNHVIHIDQPRLGLPSRDYYECTGIYKEACTAYVDFMISVARLIRQEERLPIDENQLALEMNKVMELEKEIANATAKPEDRNDPMLLYNKMTLAQIQNNFSLEINGKPFSWLNFTNEIMSTVNISITNEEDVVVYAPEYLTKLKPILTKYSARDLQNLMSWRFIMDLVSSLSRTYKESRNAFRKALYGTTSETATWRRCANYVNGNMENAVGRLYVEAAFAGESKHVVEDLIAQIREVFIQTLDDLTWMDAETKKRAEEKALAIKERIGYPDDIVSNDNKLNNEYLELNYKEDEYFENIIQNLKFSQSKQLKKLREKVDKDEWISGAAVVNAFYSSGRNQIVFPAGILQPPFFSAQQSNSLNYGGIGMVIGHEITHGFDDNGRNFNKDGDLVDWWTQQSASNFKEQSQCMVYQYGNFSWDLAGGQHLNGINTLGENIADNGGLGQAYRAYQNYIKKNGEEKLLPGLDLNHKQLFFLNFAQVWCGTYRPEYAVNSIKTDVHSPGNFRIIGTLQNSAEFSEAFHCRKNSYMNPEKKCRVW
# B4: FCGR2A (protein, UniProt P12318 34-317, looked up)
# Low affinity immunoglobulin …: QAAAPPKAVLKLEPPWINVLQEDSVTLTCQGARSPESDSIQWFHNGNLIPTHTQPSYRFKANNNDSGEYTCQTGQTSLSDPVHLTVLSEWLVLQTPHLEFQEGETIMLRCHSWKDKPLVKVTFFQNGKSQKFSHLDPTFSIPQANHSHSGDYHCTGNIGYTLFSSKPVTITVQVPSMGSSSPMGIIVAVVIATAVAAIVAAVVALIYCRKKRISANSTDPVKAAQFEPPGRQMIAIRKRQLEETNNDYETADGGYMTLNPRAPTDDDKNIYLTLPPNDHVNSNN
# B5: CD93 (protein, UniProt Q9NPY3 22-652, looked up)
# Complement component C1q …: TGADTEAVVCVGTACYTAHSGKLSAAEAQNHCNQNGGNLATVKSKEEAQHVQRVLAQLLRREAALTARMSKFWIGLQREKGKCLDPSLPLKGFSWVGGGEDTPYSNWHKELRNSCISKRCVSLLLDLSQPLLPSRLPKWSEGPCGSPGSPGSNIEGFVCKFSFKGMCRPLALGGPGQVTYTTPFQTTSSSLEAVPFASAANVACGEGDKDETQSHYFLCKEKAPDVFDWGSSGPLCVSPKYGCNFNNGGCHQDCFEGGDGSFLCGCRPGFRLLDDLVTCASRNPCSSSPCRGGATCVLGPHGKNYTCRCPQGYQLDSSQLDCVDVDECQDSPCAQECVNTPGGFRCECWVGYEPGGPGEGACQDVDECALGRSPCAQGCTNTDGSFHCSCEEGYVLAGEDGTQCQDVDECVGPGGPLCDSLCFNTQGSFHCGCLPGWVLAPNGVSCTMGPVSLGPPSGPPDEEDKGEKEGSTVPRAATASPTRGPEGTPKATPTTSRPSLSSDAPITSAPLKMLAPSGSPGVWREPSIHHATAASGPQEPAGGDSSVATQNNDGTDGQKLLLFYILGTVVAILLLLALALGLLVYRKRRAKREEKKEKKPQNAADSYSWVPERAESRAMENQYSPTPGTDC
# B6: GT (protein, UniProt P51161 2-128, looked up)
# Gastrotropin: AFTGKFEMESEKNYDEFMKLLGISSDVIEKARNFKIVTEVQQDGQDFTWSQHYSGGHTMTNKFTVGKESNIQTMGGKTFKATVQMEGGKLVVNFPNYHQTSEIVGDKLVEVSTIGGVTYERVSKRLA
# B7: GPNMB (protein, UniProt Q14956 23-572, looked up)
# Transmembrane glycoprotein NMB: KRFHDVLGNERPSAYMREHNQLNGWSSDENDWNEKLYPVWKRGDMRWKNSWKGGRVQAVLTSDSPALVGSNITFAVNLIFPRCQKEDANGNIVYEKNCRNEAGLSADPYVYNWTAWSEDSDGENGTGQSHHNVFPDGKPFPHHPGWRRWNFIYVFHTLGQYFQKLGRCSVRVSVNTANVTLGPQLMEVTVYRRHGRAYVPIAQVKDVYVVTDQIPVFVTMFQKNDRNSSDETFLKDLPIMFDVLIHDPSHFLNYSTINYKWSFGDNTGLFVSTNHTVNHTYVLNGTFSLNLTVKAAAPGPCPPPPPPPRPSKPTPSLATTLKSYDSNTPGPAGDNPLELSRIPDENCQINRYGHFQATITIVEGILEVNIIQMTDVLMPVPWPESSLIDFVVTCQGSIPTEVCTIISDPTCEITQNTVCSPVDVDEMCLLTVRRTFNGSGTYCVNLTLGDDTSLALTSTLISVPDRDPASPLRMANSALISVGCLAIFVTVISLLVYKKHKEYNPIENSPGNVVRSKGLSVFLNRAKAVFFPGNQEKDPLLKNQEFKGVS
# B8: ITGB5 (protein, UniProt P18084 24-799, looked up)
# Integrin beta-5: GLNICTSGSATSCEECLLIHPKCAWCSKEDFGSPRSITSRCDLRANLVKNGCGGEIESPASSFHVLRSLPLSSKGSGSAGWDVIQMTPQEIAVNLRPGDKTTFQLQVRQVEDYPVDLYYLMDLSLSMKDDLDNIRSLGTKLAEEMRKLTSNFRLGFGSFVDKDISPFSYTAPRYQTNPCIGYKLFPNCVPSFGFRHLLPLTDRVDSFNEEVRKQRVSRNRDAPEGGFDAVLQAAVCKEKIGWRKDALHLLVFTTDDVPHIALDGKLGGLVQPHDGQCHLNEANEYTASNQMDYPSLALLGEKLAENNINLIFAVTKNHYMLYKNFTALIPGTTVEILDGDSKNIIQLIINAYNSIRSKVELSVWDQPEDLNLFFTATCQDGVSYPGQRKCEGLKIGDTASFEVSLEARSCPSRHTEHVFALRPVGFRDSLEVGVTYNCTCGCSVGLEPNSARCNGSGTYVCGLCECSPGYLGTRCECQDGENQSVYQNLCREAEGKPLCSGRGDCSCNQCSCFESEFGKIYGPFCECDNFSCARNKGVLCSGHGECHCGECKCHAGYIGDNCNCSTDISTCRGRDGQICSERGHCLCGQCQCTEPGAFGEMCEKCPTCPDACSTKRDCVECLLLHSGKPDNQTCHSLCRDEVITWVDTIVKDDQEAVLCFYKTAKDCVMMFTYVELPSGKSNLTVLREPECGNTPNAMTILLAVVGSILLVGLALLAIWKLLVTIHDRREFAKFQSERSRARYEMASNPLYRKPISTHTVDFTFNKFNKSYNGTVD
# B9: CPA2 (protein, UniProt P48052 115-419, looked up)
# Carboxypeptidase A2: SGNFNFGAYHTLEEISQEMDNLVAEHPGLVSKVNIGSSFENRPMNVLKFSTGGDKPAIWLDAGIHAREWVTQATALWTANKIVSDYGKDPSITSILDALDIFLLPVTNPDGYVFSQTKNRMWRKTRSKVSGSLCVGVDPNRNWDAGFGGPGASSNPCSDSYHGPSANSEVEVKSIVDFIKSHGKVKAFITLHSYSQLLMFPYGYKCTKLDDFDELSEVAQKAAQSLRSLHGTKYKVGPICSVIYQASGGSIDWSYDYGIKYSFAFELRDTGRYGFLLPARQILPTAEETWLGLKAIMEHVRDHPY
# B10: NBN (protein, UniProt O60934 1-754, looked up)
# Nibrin: MWKLLPAAGPAGGEPYRLLTGVEYVVGRKNCAILIENDQSISRNHAVLTANFSVTNLSQTDEIPVLTLKDNSKYGTFVNEEKMQNGFSRTLKSGDGITFGVFGSKFRIEYEPLVACSSCLDVSGKTALNQAILQLGGFTVNNWTEECTHLVMVSVKVTIKTICALICGRPIVKPEYFTEFLKAVESKKQPPQIESFYPPLDEPSIGSKNVDLSGRQERKQIFKGKTFIFLNAKQHKKLSSAVVFGGGEARLITEENEEEHNFFLAPGTCVVDTGITNSQTLIPDCQKKWIQSIMDMLQRQGLRPIPEAEIGLAVIFMTTKNYCDPQGHPSTGLKTTTPGPSLSQGVSVDEKLMPSAPVNTTTYVADTESEQADTWDLSERPKEIKVSKMEQKFRMLSQDAPTVKESCKTSSNNNSMVSNTLAKMRIPNYQLSPTKLPSINKSKDRASQQQQTNSIRNYFQPSTKKRERDEENQEMSSCKSARIETSCSLLEQTQPATPSLWKNKEQHLSENEPVDTNSDNNLFTDTDLKSIVKNSASKSHAAEKLRSNKKREMDDVAIEDEVLEQLFKDTKPELEIDVKVQKQEEDVNVRKRPRMDIETNDTFSDEAVPESSKISQENEIGKKRELKEDSLWSAKEISNNDKLQDDSEMLPKKLLLTEFRSLVIKNSTSRNPSGINDDYGQLKNFKKFKKVTYPGAGKLPHIIGGSDLIAHHARKNTELEEWLRQEMEVQNQHAKEESLADDLFRYNPYLKRRR
# B11: Ep-CAM (protein, UniProt P16422 24-314, looked up)
# Epithelial cell adhesion …: QEECVCENYKLAVNCFVNNNRQCQCTSVGAQNTVICSKLAAKCLVMKAEMNGSKLGRRAKPEGALQNNDGLYDPDCDESGLFKAKQCNGTSMCWCVNTAGVRRTDKDTEITCSERVRTYWIIIELKHKAREKPYDSKSLRTALQKEITTRYQLDPKFITSILYENNVITIDLVQNSSQKTQNDVDIADVAYYFEKDVKGESLFHSKKMDLTVNGEQLDLDPGQTLIYYVDEKAPEFSMQGLKAGVIAVIVVVVIAVVAGIVVLVISRKKRMAKYEKAEIKEMGEMHRELNA
# Tested on: plasma proteins
# Experiment: Plasma proteins modulated between baseline and day 28 in responders (CR, VGPR, PR; n = 19), Example 6 (Table 13)
# Type: in vivo, human
# Conditions: plasma protein (OLINK NPX); responders (CR, VGPR, PR; n = 19); itacitinib 200 mg or 300 mg QD with corticosteroids; day 28 vs baseline
# How it was run: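 Plasma at baseline/screening and day 28 profiled for >1000 proteins by OLINK proximity extension assay, reported as NPX (log2). Steroid-naive and steroid-refractory patients pooled. Paired and unpaired t tests, ANOVA and Pearson correlation applied; significance at P<0.05.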
molecule,measurement,value
B1,"Fold Change, Decreased Expression from Baseline to Day 28",−1.4384
B2,"Fold Change, Decreased Expression from Baseline to Day 28",−1.6468
B3,"Fold Change, Increased Expression from Baseline to Day 28",1.8376
B4,"Fold Change, Decreased Expression from Baseline to Day 28",−1.5278
B5,"Fold Change, Decreased Expression from Baseline to Day 28",−1.3029
B6,"Fold Change, Increased Expression from Baseline to Day 28",1.8699
B7,"Fold Change, Increased Expression from Baseline to Day 28",1.2117
B8,"Fold Change, Increased Expression from Baseline to Day 28",1.229
B9,"Fold Change, Increased Expression from Baseline to Day 28",1.7185
B10,"Fold Change, Decreased Expression from Baseline to Day 28",−1.5879
B11,"Fold Change, Increased Expression from Baseline to Day 28",1.403
